The target of one data set is T1, GCase (Homo sapiens, UniProt P04062).
T1 construct: purchased Shire Human Genetic Therapies, Inc. Vpriv
T1 sequence (P04062 40-536): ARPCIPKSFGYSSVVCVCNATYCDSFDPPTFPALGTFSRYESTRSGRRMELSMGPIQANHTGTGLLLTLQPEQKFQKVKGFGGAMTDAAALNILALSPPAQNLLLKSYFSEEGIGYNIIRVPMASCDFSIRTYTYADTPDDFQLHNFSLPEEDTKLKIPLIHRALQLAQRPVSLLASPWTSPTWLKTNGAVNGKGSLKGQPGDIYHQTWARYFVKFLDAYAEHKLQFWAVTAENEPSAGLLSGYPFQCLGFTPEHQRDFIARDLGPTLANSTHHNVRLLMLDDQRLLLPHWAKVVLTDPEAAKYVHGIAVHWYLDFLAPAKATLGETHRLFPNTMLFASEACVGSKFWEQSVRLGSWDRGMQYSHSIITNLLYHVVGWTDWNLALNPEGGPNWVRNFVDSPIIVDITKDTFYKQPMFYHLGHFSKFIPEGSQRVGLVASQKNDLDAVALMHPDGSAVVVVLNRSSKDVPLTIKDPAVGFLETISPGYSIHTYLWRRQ
The experiment in a line: Fluorescence polarization (FP) assay, probe titrated with enzyme. The class given is binding. The conditions noted are these: probe 50 nM, enzyme 5 nM to 10 μM. On the procedure: The fluorescent probe 3 (25 nL/well, 50 nM final concentration) was transferred to a 384-well black plate using a Labcyte Echo 550 Liquid Handler system. The 25 μL/well enzyme dilutions with GCase enzyme activity buffer were added to the plate, which was shaken at room temperature in dark for 20 min. The final titration was 5 nM to 10 μM, 10 concentrations, 2 times dilution. The fluorescence polarization was measured in Molecular Devices Analyst GT with Ex=535 nm and Em=580 nm, G Factor=1.05.
The fluorescent probe 3 (25 nL/well, 50 nM final concentration) was transferred to a 384-wells black plate by using Labcyte Echo 550 Liquid Handler system. The 25 μL/well enzyme dilutions in GCase enzyme activity buffer (the final titration was 5 nM to 10 μM, 10 concentrations, 2 times dilution) were added to the plate, and shook at room temperature in dark for 20 min. The fluorescence polarization was measured in Molecular Devices Analyst GT with Ex=535 nm and Em=580 nm, G Factor=1.05.

Data set [1] is described as follows: Enzyme stability assay in pH 4.7 buffer. The class given is physicochemical. From the text: To test whether probe 4 changed the enzyme stability of GCase, we used two environments for GCase activity stability assay (Tekoah, Tzaban et al. 2013). The first one was citrate/phosphorylate buffer, which was at pH 4.7. In this condition, the wt. GCase only had about 15% activity left on day 4 (FIGS. 6A and 6B), which is similar to the previous research (Tekoah, Tzaban et al. 2013). An interesting finding was that even on day 10, activated GCase still had more than 20% activity left. […] One possible reason for the higher enzyme activity in low pH buffer was that activated GCase was stabilized by the covalent compound, and was more difficult to unfold.

The target in data set [2] is T2, recombinant wild type GCase (Homo sapiens, UniProt P04062).
T2 construct: purchased Shire Human Genetic Therapies, Inc. Vpriv
T2 sequence (P04062 40-536): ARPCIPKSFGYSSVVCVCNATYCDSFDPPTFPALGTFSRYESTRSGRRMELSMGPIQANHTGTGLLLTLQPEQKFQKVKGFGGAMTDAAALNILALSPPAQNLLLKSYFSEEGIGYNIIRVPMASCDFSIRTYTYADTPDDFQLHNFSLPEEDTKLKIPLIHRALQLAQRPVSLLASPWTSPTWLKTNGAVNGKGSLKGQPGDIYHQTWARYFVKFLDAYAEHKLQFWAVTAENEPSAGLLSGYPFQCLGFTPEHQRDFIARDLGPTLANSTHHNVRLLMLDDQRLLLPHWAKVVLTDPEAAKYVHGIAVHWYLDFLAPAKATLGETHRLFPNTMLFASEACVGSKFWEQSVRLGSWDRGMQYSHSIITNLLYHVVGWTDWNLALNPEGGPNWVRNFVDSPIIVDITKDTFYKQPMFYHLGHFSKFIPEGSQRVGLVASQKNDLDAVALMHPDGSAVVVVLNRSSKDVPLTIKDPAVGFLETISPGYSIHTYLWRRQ
The experiment in a line: Covalent binding assay: activity of GCase activated by probe 4. The conditions noted are these: natural substrate assay; covalent activation. The class given is biochemical. On the procedure:
To the recombinant wild type enzyme (22 μM, 95 μL, 1 equiv) in 0.1 M phosphate buffer (pH 7.2) was added 2,5-dioxopyrrolidin-1-yl 3-(2-(2-(4-(4-(2,4-dimethylpyrrolo[1,2-a]pyrimidine-8-carboxamido)phenyl)-1H-1,2,3-triazol-1-yl)ethoxy)ethoxy)propanoate (4) in DMSO (0.89 mM, 5 μL, 2 equiv) in one portion, and was vortexed for 5 sec immediately. At indicated time points, the reaction solution (2 μL) was sampled and diluted (1:3125 dilution) into the assay buffer (50 mM citric acid, 176 mM K2HPO4, and 0.01% Tween-20 at pH 5.9). After 2 h the reaction solution was dialyzed three times with 0.1 M phosphate buffer (pH 7.2). The enzyme was adjusted to the same concentration and sampled for activity. The dilution solutions were assayed with three substrates, resorufin substrate, 4-MU substrate, and natural substrate using the method in Example 5 and Example 6 without adding compounds.
The probe 4 was subjected to the covalent binding assay against GCase. The reaction conditions, including the buffer pH value, the concentration of the protein and probe, and the reaction temperature were carefully adjusted to achieve the maximum activation. With the optimized reaction condition, the enzyme activity was activated in a time-dependent manner (FIG. 5). The enzyme could be activated by probe 4 with around 22 and 28 folds activity comparing to the wt. GCase in the 4MU-Glc substrate (FIG. 5A) and red substrate (FIG. 5B) enzyme activity assay respectively.

In a further data set the test system is U937 macrophage cells. Nature of the data set: U937 macrophage uptake assay. As to conditions: for activity compared to endogenous GC: PMA-induced U937 cells, 4MU-β-glc substrate. The class given is cell-based, human. As to the method: Human monocyte cell line U937 was optimally differentiated into macrophages by the addition of 75 ng/ml PMA (Brumshtein, Salinas et al. 2010) to the monocyte culture for 3 days (in 75 cm^2 flasks). Macrophages were enriched by adhesion to the culture plate and identified by morphology and receptor staining.
The assay was carried out according to the reported method (Tekoah, Tzaban et al. 2013) with slight modification. The enzyme was treated with compound 4 or DMSO at pH 7.2 for 60 min as described above, then dialyzed with PBS. U937 cells, after differentiation (˜1.6*10^6 cells), were incubated with 60 μg/ml of the activated enzymes and wt. enzyme in F12K medium for 10 min at 5% CO2, 37° C. incubator. The cells were then washed twice with ice cold PBS enriched with Mannan (1 mg/ml). To further ensure release of any proteins bound non-specifically to the membrane half of the cells were washed with ice cold glycine buffer: (0.8% NaCl, 0.038% KCl, 0.01% MgCl2, 0.01% CaCl2, 0.7% glycine [pH 3]) followed by two additional cold PBS washes. The other half of the wells were used as controls for measuring total enzymatic activity (bound and internalized enzyme). The cells were lysed by adding β-glucocerebrosidase activity buffer (60 mM phosphate-citrate buffer; 0.15% Triton X-100; 0.125% sodium taurocholate, pH 5.5), followed by pipetting and one freeze/thaw cycle. The obtained lysates were subjected to determination of enzymatic activity using the colorimetric method detailed above. The total enzymatic activity was normalized to total soluble proteins as measured by Bradford assay. The effective uptake was calculated as the percentage of activity within the cells out of the total enzymatic activity of the controls.

Several values for one entry are separate records, joined by “and”; a condition that tells them apart may be missing. Equal values may be shown once.

Turning to `Cc1cc(C)n2ccc(C(=O)Nc3ccc(-c4cn(CCOCCOCCNC(=O)c5ccc(-c6c7ccc(=[N+](C)C)cc-7oc7cc(N(C)C)ccc67)c(C(=O)[O-])c5)nn4)cc3)c2n1` [No. 4, 2-(3,6-Bis(dimethylamino)xanthylium-9-yl)-5-((2-(2-(2-(4-(4-(2,4-dimethylpyrrolo[1,2-a]pyrimidine-8-carboxamido)phenyl)-1H-1,2,3-triazol-1-yl)ethoxy)ethoxy)ethyl)carbamoyl)benzoate], at GCase, the Kd was 710 nM and ~710 nM.

B1: activated GCase: recombinant wild type GCase covalent modified by probe 4 (NHS ester) on lysine residues, 1-3 ligands (conjugate, UniProt P04062 40-536, looked up)
Lysosomal acid …: ARPCIPKSFGYSSVVCVCNATYCDSFDPPTFPALGTFSRYESTRSGRRMELSMGPIQANHTGTGLLLTLQPEQKFQKVKGFGGAMTDAAALNILALSPPAQNLLLKSYFSEEGIGYNIIRVPMASCDFSIRTYTYADTPDDFQLHNFSLPEEDTKLKIPLIHRALQLAQRPVSLLASPWTSPTWLKTNGAVNGKGSLKGQPGDIYHQTWARYFVKFLDAYAEHKLQFWAVTAENEPSAGLLSGYPFQCLGFTPEHQRDFIARDLGPTLANSTHHNVRLLMLDDQRLLLPHWAKVVLTDPEAAKYVHGIAVHWYLDFLAPAKATLGETHRLFPNTMLFASEACVGSKFWEQSVRLGSWDRGMQYSHSIITNLLYHVVGWTDWNLALNPEGGPNWVRNFVDSPIIVDITKDTFYKQPMFYHLGHFSKFIPEGSQRVGLVASQKNDLDAVALMHPDGSAVVVVLNRSSKDVPLTIKDPAVGFLETISPGYSIHTYLWRRQ
modifications: covalent probe 4 on lysines
notes: recombinant wild type GCase covalent modified by probe 4 (NHS ester) on lysine residues, 1-3 ligands
With B1, the activity left result in data set [1] (citrate/phosphate buffer pH 4.7, day 10) is recorded as “more than 20%”. In addition, the activity improvement in data set [2] is reported as 16 folds. In addition, in the data set with U937 macrophage cells, the “activity compared to endogenous GC” value was “more than 25 folds”. Moreover, the protein uptake level entry in the data set on U937 macrophage cells (Western blot, activated GCase vs wt. GCase, in words) is reported as “equal”.

B2: wt. GCase: recombinant wt. enzyme velaglucerase alfa (Vpriv, Shire Human Genetic Therapies, Inc.) (protein, UniProt P04062 40-536, looked up)
Lysosomal acid …: ARPCIPKSFGYSSVVCVCNATYCDSFDPPTFPALGTFSRYESTRSGRRMELSMGPIQANHTGTGLLLTLQPEQKFQKVKGFGGAMTDAAALNILALSPPAQNLLLKSYFSEEGIGYNIIRVPMASCDFSIRTYTYADTPDDFQLHNFSLPEEDTKLKIPLIHRALQLAQRPVSLLASPWTSPTWLKTNGAVNGKGSLKGQPGDIYHQTWARYFVKFLDAYAEHKLQFWAVTAENEPSAGLLSGYPFQCLGFTPEHQRDFIARDLGPTLANSTHHNVRLLMLDDQRLLLPHWAKVVLTDPEAAKYVHGIAVHWYLDFLAPAKATLGETHRLFPNTMLFASEACVGSKFWEQSVRLGSWDRGMQYSHSIITNLLYHVVGWTDWNLALNPEGGPNWVRNFVDSPIIVDITKDTFYKQPMFYHLGHFSKFIPEGSQRVGLVASQKNDLDAVALMHPDGSAVVVVLNRSSKDVPLTIKDPAVGFLETISPGYSIHTYLWRRQ
modifications: velaglucerase alfa
For the molecule B2, in data set [1] (citrate/phosphate buffer pH 4.7, day 4), the activity left entry is on record as “about 15%”. In addition, the “activity compared to endogenous GC” value in the data set with U937 macrophage cells is listed as “about 3 folds”.

For the origin of these results see patent publication US9802942B2, “Substituted 4-methyl-pyrrolo[1,2-A]pyrimidine-8-carboxamide compounds and uses thereof for modulating glucocerebrosidase activity” (Northwestern University, priority 2015, dated 2017).
